In US20080274977A1 one finds % inhibition data, which are given here for 2 molecules.

For assay [1], the target named is N-type calcium channel (receptor binding screen of Example 1).
The target in assay [2] is T1, chemokine CXCR2 (IL-8Rb), P25025.
T1 chain: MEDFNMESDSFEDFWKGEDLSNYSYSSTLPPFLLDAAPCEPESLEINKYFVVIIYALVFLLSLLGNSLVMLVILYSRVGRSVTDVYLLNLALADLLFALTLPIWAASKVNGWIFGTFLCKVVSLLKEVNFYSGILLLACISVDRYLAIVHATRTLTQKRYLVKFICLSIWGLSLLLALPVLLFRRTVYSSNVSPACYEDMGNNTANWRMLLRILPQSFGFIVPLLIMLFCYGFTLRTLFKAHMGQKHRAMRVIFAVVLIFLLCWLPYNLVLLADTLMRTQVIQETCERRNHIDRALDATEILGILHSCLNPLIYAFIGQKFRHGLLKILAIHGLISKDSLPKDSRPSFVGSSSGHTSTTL

For Tat-NR2B9c (peptide), the % inhibition in assay [1] amounted to 100%.
In assay [2], YGRKKRRQRRRKLSSIESDV (modifications not checked) [Tat-NR2B9c] came in with a % inhibition of 80%.
